The values below come from PMC3688735.

The target in the assay is mKate. In words: SEC; gel filtration on a 1x90 cm Econo-column packed with Sephacryl-S200, equilibrated with 25 mM Tris-HCl pH 7.5, 150 mM NaCl; self-association of the purified fluorescent protein. Background: Size exclusion chromatography separates by hydrodynamic size, large species first.

What is called stoichiometry N is a count of units in the complex or per binding partner. For the substance mKate, the stoichiometry N worked out at 2.
